The text below walks through data of paper PMC8144435.

Values joined by “and” are separate entries in the source; they are usually repeats but may differ in a detail not shown here. Identical values can stand only once.

This experiment has as its target Mayaro virus (MAYV) capsid (C) protein, strain IQT4235 (Mayaro virus (strain IQT4235)). As to the kind of experiment: cryo-EM structure; purified mature infectious MAYV virions (5x10^10 PFU/mL, from Vero CCL81 cells) vitrified on Quantifoil R2/2 grids; 300 kV Titan Krios, single particle analysis with icosahedral symmetry, global resolution 4.4 Å; atomic model from a homology model on CHIKV (PDB 6NK5) refined into the map.

By stoichiometry N is commonly meant a count of units in the complex or per binding partner. Take “Mayaro virus (MAYV) capsid (C) protein, strain IQT4235 (natural protein)”: the stoichiometry N is 6 and 5.
